# Assay results as given in patent publication US9040017B2, “Liver-receptor imaging injection, dispensing method and pharmaceutical composition thereof” (INSTITUTE OF NUCLEAR ENERGY RESEARCH ATOMIC ENERGY COUNCIL, …, priority 2010, dated 2015).
# Assay: Radiochemical purity before and after autoclave sterilization
# Format: physicochemical
# Details: DTPA-hexa-lactoside autoclaved in a lyophilized vial, then 111In radiolabel
# Experimental: To test whether ^111In radiolabel of DTPA-hexa-lactoside was affected by autoclave sterilization, DTPA-hexa-lactoside was put into a lyophilized vial to set in an autoclave for sterilizing. After that, ^111In radiolabel proceeded. […] The comparison of radiochemical purity between before and after autoclave sterilization was illustrated in FIG. 2. First, a developing solvent of radio-ITLC of 10 mM sodium citrate buffer (about pH 5) were prepared as follows: 0.13 g citric acid monohydrate and 0.11 g trisodium citrate dehydrate were weighed precisely to dissolve in 100 ml water for injection. Then 10 ml of the solution were added in the developing tank as a developing solvent. The position away from the bottom of a TLC-SG film about 2 cm was marked with a pencil as the origin while the position away from the bottom about 9 cm was marked as the end. A few samples were taken by a micropipette to drop at the origin. Then, the TLC-SG film was put in a developing tank containing a buffer (about pH 5) of 10 mM sodium citrate to develop. The film were taken out to dry in the fume cabinet while the liquid level reached the end. […] The calculating formula is as follows: Radiochemical purity (%)=A/B×100%, wherein A refers to a calculated area peak of ^111In-DTPA-hexa-lactoside (Rf=0.0-0.1), and B refers to calculated area of all peaks.
substance,measurement,value
DTPA derivatives of AHA-Asp[DCM-Lys(ah-Lac)3]2 [DTPA-hexa-lactoside],radiochemical purity of 111In after autoclave sterilization,< 90%
